According to PMC9726709, “Fluorescently tagged nanobodies and NanoBRET to study ligand-binding and agonist-induced conformational changes of full-length EGFR expressed in living cells” (Frontiers in Immunology, 2022):
Each block holds one binder with its values, some of them ahead of it.

Key:
[1] = biological target: T1, N-terminal NanoLuc-tagged EGFR (NLuc-EGFR) (human, UniProt P00533 25-1210); conditions: one partner purified
T1 construct: ORF from the Kazusa DNA Research Institute; NanoLuc fused to its N-terminus via a Gly-Ser-Ser-Gly linker; signal peptide of IL-6 before NanoLuc; Vector pNKF1-secN CMV; The abstract says HEK293T, the methods HEK293; also called full-length N-terminal nanoluciferase-EGFR; NanoLuc-EGFR; source: HEK293 cells, stably transfected, on living cells; not shown: NanoLuc, N-terminal, kept

[2] = biological target: T1, N-terminal NanoLuc-tagged EGFR …; assay: cell-based or functional assay
[3] = biological target: T1, N-terminal NanoLuc-tagged EGFR …; assay: FRET or BRET; NanoBRET displacement of 3 nM EGF-AF488 by unlabelled EGFR ligands on living HEK293 cells expressing NLuc-EGFR; added simultaneously, 30 min at 37 °C; HBSS with 0.2% BSA; Ki from IC50 by Cheng-Prusoff; pKi is the negative log10; conditions: one partner purified

- pIC50 [1]: 8.8
- pEC50 for enhancement of the specific binding of 12.5 nM Q86c-HL488 (conformational sensor nanobody) to NLuc-EGFR, NanoBRET on HEK293 cells [2]: 9.2
- pKi [3]: 8.43
B1: heparin binding EGF-like growth factor (ligand, UniProt Q99075 63-148, looked up)
chain: DLQEADLDLLRVTLSSKPQALATPNKEEHGKRKKKGKGLGKKRDPCLRKYKDFCIHGECKYVKELRAPSCICHPGYHGERCHGLSL
notes: the other ligands are human recombinant proteins from R&D Systems; also called HB-EGF; Hb-EGF

- pIC50 [1]: 9.02
- pEC50 for enhancement of the specific binding of 12.5 nM Q86c-HL488 (conformational sensor nanobody) to NLuc-EGFR, NanoBRET on HEK293 cells [2]: 9.17
- pKi [3]: 8.45
B2: human recombinant betacellulin (ligand, UniProt P35070 32-111, looked up)
chain: DGNSTRSPETNGLLCGDPEENCAATTTQSKRKGHFSRCPKQYKHYCIKGRCRFVVAEQTPSCVCDEGYIGARCERVDLFY
notes: Betacellulin, human, recombinant; also called BTC; source: bought: R&D Systems (261-CE-010)
